Drawing on patent US20200055939A1, this text covers Elisa value and fold-decrease in affinity for four molecules.

Numbering of substitutions follows the chain as printed. Values joined by “and” are separate entries in the source; they are usually repeats but may differ in a detail not shown here. Equal values may be shown once.

One assay addresses the other Glyco variants. As to the kind of experiment: ELISA, coated variant. A general note: ELISA stands for enzyme-linked immunosorbent assay.
A further assay has as its target D249A. The assay can be described thus: SPR, Fab over captured MICA*008.mIgG2a Ala variant; KD relative to wild type. A general note: SPR reads the build-up and loss of mass on a sensor chip optically.
For a further assay, the target named is Q241A. The description is as above.
Sequence of Q241A (chain, as listed by the source Q241A Q241A limits assumed): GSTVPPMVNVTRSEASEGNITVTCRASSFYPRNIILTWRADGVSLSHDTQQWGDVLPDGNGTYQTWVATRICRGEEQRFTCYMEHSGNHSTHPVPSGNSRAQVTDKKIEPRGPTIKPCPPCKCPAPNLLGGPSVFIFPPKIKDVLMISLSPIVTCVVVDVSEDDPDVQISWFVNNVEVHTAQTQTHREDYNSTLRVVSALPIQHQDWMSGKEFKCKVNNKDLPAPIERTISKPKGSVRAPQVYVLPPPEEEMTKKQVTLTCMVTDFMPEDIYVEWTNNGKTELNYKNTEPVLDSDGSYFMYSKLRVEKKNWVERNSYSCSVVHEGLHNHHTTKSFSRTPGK
The target in another assay is R274A. The assay is described as above.
Sequence of R274A (chain, as listed by the source R274A R274A limits assumed): as the sequence (chain, as listed by the source Q241A Q241A limits assumed) above, with A40Q, R73A counted along it
A further assay has as its target E285A. The assay is described as above.
The target in another assay is I236A. The assay is described as above.
Sequence of I236A (chain, as listed by the source I236A I236A limits assumed): as the sequence (chain, as listed by the source Q241A Q241A limits assumed) above, with I35A, A40Q counted along it
In another assay the target is G275A. The assay is described as above.
Sequence of G275A (chain, as listed by the source G275A G275A limits assumed): as the sequence (chain, as listed by the source Q241A Q241A limits assumed) above, with A40Q, G74A counted along it
Another assay has as its target T292A. The description is as above.
The target of another assay is H248A. Described as above.
Sequence of H248A (chain, as listed by the source H248A H248A limits assumed): as the sequence (chain, as listed by the source Q241A Q241A limits assumed) above, with A40Q, H47A counted along it
For the next assay, the target named is Y283A. The description is as above.
Sequence of Y283A (chain, as listed by the source Y283A Y283A limits assumed): as the sequence (chain, as listed by the source Q241A Q241A limits assumed) above, with A40Q, Y82A counted along it
In another assay the target is S245A. Described as above.
Sequence of S245A (chain, as listed by the source S245A S245A limits assumed): as the sequence (chain, as listed by the source Q241A Q241A limits assumed) above, with A40Q, S44A counted along it
For a further assay, the target named is R240A. The assay is described as above.
Sequence of R240A (chain, as listed by the source R240A R240A limits assumed): as the sequence (chain, as listed by the source Q241A Q241A limits assumed) above, with R39A, A40Q counted along it
A further assay deals with V244A. The description is as above.
Sequence of V244A (chain, as listed by the source V244A V244A limits assumed): as the sequence (chain, as listed by the source Q241A Q241A limits assumed) above, with A40Q, V43A counted along it
The next assay concerns the target H290A. The description is as above.
The target of another assay is R279A. The assay is described as above.
Sequence of R279A (chain, as listed by the source R279A R279A limits assumed): as the sequence (chain, as listed by the source Q241A Q241A limits assumed) above, with A40Q, R78A counted along it

Sequence of D249A (chain, as listed by the source D249A D249A limits assumed): as the sequence (chain, as listed by the source Q241A Q241A limits assumed) above, with A40Q, D48A counted along it
Sequence of T292A (chain, as listed by the source T292A T292A limits assumed): as the sequence (chain, as listed by the source Q241A Q241A limits assumed) above, with A40Q, T91A counted along it
Sequence of H290A (chain, as listed by the source H290A H290A limits assumed): as the sequence (chain, as listed by the source Q241A Q241A limits assumed) above, with A40Q, H89A counted along it
Sequence of E285A (chain, as listed by the source E285A E285A limits assumed): as the sequence (chain, as listed by the source Q241A Q241A limits assumed) above, with A40Q, E84A counted along it

B1: 13A9 (antibody, V domains shown)
VH: QVQLQQSGAELVRPGTSVKVSCKASGYAFTNYLIEWVKQRPGQGLEWIGAINPGSGATNYNEKFKDKARLTADKSSNTAYLQFSSLTSDDSAVYFCARFLGNYFDNWGQGATLTVSS
VL: DIQMTQSPASLSASVGETVTITCRASGNIHSYLAWYQQKQGKSPQLLVYYAETLADGVPSRFSGRGSGTQYSLKINSLQPEDFGSYFCQQFWTTPYTFGGGTKVEIK
Consider B1, for which the Elisa value with the other Glyco variants was 3.8 and 3.9.

B2: 1D5 Fab (Fab, V domains shown, not shown: a dimerising Fc or GST)
VH: EIQLQQSGPELVKPGASVKVSCKASGYAFTSQNIYWVKQSHGKSLEWIGYIEPYNVVPMYNPKFKGKATLTVDKSSSSAYIHLNSLTSEDSAIYYCARSGSSNFDYWGQGTTLTVSS
VL: EIILTQSPTTMAASPGEKITITCSASSSISSHYLHWYQQKSGFSPKLLIYRTSNLASGVPARFSGSGSGTSYSLTIGTMEAEDVATYYCQQGSSLPLTFGAGTKVEIK
Take B2: the fold-decrease in affinity was 3.5 with D249A; 9830 with Q241A; 3 with R274A; 1060 with E285A; 0.01 with I236A; 0.03 with G275A. For the same molecule, the fold-decrease in affinity was 3040 in the assay with T292A; 16 in the assay with H248A; 6260 in the assay with Y283A; 13 in the assay with S245A; 15500 in the assay with R240A; 10400 with V244A. For the same molecule, the fold-decrease in affinity came to 14400 in the assay with H290A and 3950 with R279A.

B3: 7D4.6 Fab (Fab, V domains shown)
VH: DVQLQESGPGLVKPSQSLSLTCTVTGYSITSDYAWNWIRQFPRNKLEWMGYINYSGTTNYNPSLKSRISITRDTSKNQFFLQLISVTTEDTATYYCSYYRYDGAWFPYWGQGTLVTVSA
VL: DIQMTQSPASLSASVGETVTITCRASGNIHNYLAWYQQKQGKSPQLLVYNAIMLADGVPSRFSASGSGTQYSLKINSLQPEDFGSYYCQHFWSFPLTFGAGTKVEIK
Turning to B3, the fold-decrease in affinity in the assay with G275A stood at 3.1; with Y283A, 3.2; with R240A, 1500; with V244A, 8.6.

B4: 6F8.7 Fab (Fab, V domains shown)
VH: DVQLQGSGPGLVKPSQSLSLTCSVTGYSITNDYYWNWIRQFPGNKLEWMGFISFGGSNNYNPSLKNRISITRDTSKNQFFLKLSSVTTEDTATYYCARYDGRGAWFAYWAQGTLVTVSA
VL: B3 VL with N50D, M53T, A64G, S85N
For the molecule B4, in the assay with V244A, the fold-decrease in affinity amounted to 5.5.
